According to the supplement of paper PMC9112550, “Optimization of the antimicrobial peptide Bac7 by deep mutational scanning” (BMC Biology, 2022):

Test system: Escherichia coli TOP10
Experiment: shrunken log2 fold change of peptide-encoding DNA abundance (4.5 h post-induction vs induction); higher = less antimicrobial activity (less host growth inhibition)
Settings: time post-induction: 4.5 h; library: site-saturation at positions 5, 18, 19, 20
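Note: peptides expressed intracellularly from a pBAD plasmid library in pooled LB shake-flask culture, induced with 0.3% L-arabinose, DNA abundance read by NGS, three biological replicates, DESeq2 with apeglm shrinkage.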

| Sequence | shrunken log2 fold change |
| --- | --- |
| RRIRGRPPRLPRPRPRPSAFPRP | 1.1 |
| RRIRGRPPRLPRPRPRPSAKPRP | 1.12 |
| RRIRGRPPRLPRPRPRPSDLPRP | 0.0731 |
| RRIRGRPPRLPRPRPRPSDMPRP | 0.488 |
| RRIRGRPPRLPRPRPRPSDRPRP | 0.137 |
| RRIRGRPPRLPRPRPRPSEFPRP | 0.122 |
| RRIRGRPPRLPRPRPRPSFTPRP | 0.079 |
| RRIRGRPPRLPRPRPRPSGAPRP | 0.688 |
| RRIRGRPPRLPRPRPRPSGNPRP | 0.18 |
| RRIRGRPPRLPRPRPRPSGQPRP | 0.538 |
| RRIRGRPPRLPRPRPRPSHLPRP | -0.158 |
| RRIRGRPPRLPRPRPRPSKLPRP | 0.0492 |
| RRIRGRPPRLPRPRPRPSKTPRP | 0.558 |
| RRIRGRPPRLPRPRPRPSLIPRP | 0.211 |
| RRIRGRPPRLPRPRPRPSMPPRP | 0.0931 |
| RRIRGRPPRLPRPRPRPSMQPRP | 0.599 |
| RRIRGRPPRLPRPRPRPSPFPRP | 0.168 |
| RRIRGRPPRLPRPRPRPSQIPRP | -0.111 |
| RRIRGRPPRLPRPRPRPSQQPRP | -0.147 |
| RRIRGRPPRLPRPRPRPSSGPRP | 0.0321 |
| RRIRGRPPRLPRPRPRPSSMPRP | -0.0636 |
| RRIRGRPPRLPRPRPRPSTGPRP | -0.0729 |
| RRIRGRPPRLPRPRPRPSVVPRP | 0.658 |
| RRIRGRPPRLPRPRPRPSVWPRP | 0.622 |
| RRIRGRPPRLPRPRPRPSWAPRP | 0.532 |

| Sequence | shrunken log2 fold change |
| --- | --- |
| RRIRGRPPRLPRPRPRPSWQPRP | 0.109 |
| RRIRGRPPRLPRPRPRPTCAPRP | 1.11 |
| RRIRGRPPRLPRPRPRPTCEPRP | 1.1 |
| RRIRGRPPRLPRPRPRPTCHPRP | 0.893 |
| RRIRGRPPRLPRPRPRPTCKPRP | 0.57 |
| RRIRGRPPRLPRPRPRPTDMPRP | 1.1 |
| RRIRGRPPRLPRPRPRPTDWPRP | 0.8 |
| RRIRGRPPRLPRPRPRPTEAPRP | -0.0279 |
| RRIRGRPPRLPRPRPRPTEDPRP | 1.2 |
| RRIRGRPPRLPRPRPRPTGYPRP | 0.559 |
| RRIRGRPPRLPRPRPRPTHNPRP | 0.443 |
| RRIRGRPPRLPRPRPRPTILPRP | 0.131 |
| RRIRGRPPRLPRPRPRPTIWPRP | 0.872 |
| RRIRGRPPRLPRPRPRPTKDPRP | 0.7 |
| RRIRGRPPRLPRPRPRPTLCPRP | 0.443 |
| RRIRGRPPRLPRPRPRPTLFPRP | 0.824 |
| RRIRGRPPRLPRPRPRPTMCPRP | 0.805 |
| RRIRGRPPRLPRPRPRPTNHPRP | 0.169 |
| RRIRGRPPRLPRPRPRPTPNPRP | 0.957 |
| RRIRGRPPRLPRPRPRPTRNPRP | 1.61 |
| RRIRGRPPRLPRPRPRPTSCPRP | 0.401 |
| RRIRGRPPRLPRPRPRPTSGPRP | 0.917 |
| RRIRGRPPRLPRPRPRPTSMPRP | 0.643 |
| RRIRGRPPRLPRPRPRPTTGPRP | 0.418 |
| RRIRGRPPRLPRPRPRPTTKPRP | 1 |

| Sequence | shrunken log2 fold change |
| --- | --- |
| RRIRGRPPRLPRPRPRPTTPPRP | 0.681 |
| RRIRGRPPRLPRPRPRPTTVPRP | 0.368 |
| RRIRGRPPRLPRPRPRPTWDPRP | 1.01 |
| RRIRGRPPRLPRPRPRPTWPPRP | 0.52 |
| RRIRGRPPRLPRPRPRPVCWPRP | 1.16 |
| RRIRGRPPRLPRPRPRPVDDPRP | 0.882 |
| RRIRGRPPRLPRPRPRPVDIPRP | 0.183 |
| RRIRGRPPRLPRPRPRPVEEPRP | 0.843 |
| RRIRGRPPRLPRPRPRPVEFPRP | 0.596 |
| RRIRGRPPRLPRPRPRPVENPRP | 0.757 |
| RRIRGRPPRLPRPRPRPVERPRP | 0.5 |
| RRIRGRPPRLPRPRPRPVGRPRP | 0.842 |
| RRIRGRPPRLPRPRPRPVGYPRP | 0.295 |
| RRIRGRPPRLPRPRPRPVHDPRP | -0.0619 |
| RRIRGRPPRLPRPRPRPVHQPRP | 0.228 |
| RRIRGRPPRLPRPRPRPVKQPRP | 0.216 |
| RRIRGRPPRLPRPRPRPVKYPRP | 0.235 |
| RRIRGRPPRLPRPRPRPVLIPRP | 0.223 |
| RRIRGRPPRLPRPRPRPVLKPRP | 0.402 |
| RRIRGRPPRLPRPRPRPVLMPRP | 0.316 |
| RRIRGRPPRLPRPRPRPVMTPRP | 1.8 |
| RRIRGRPPRLPRPRPRPVNAPRP | 0.719 |
| RRIRGRPPRLPRPRPRPVNYPRP | 0.203 |
| RRIRGRPPRLPRPRPRPVPIPRP | 0.372 |
| RRIRGRPPRLPRPRPRPVPPPRP | 1.17 |
